Source: the supplement of paper PMC9112550, “Optimization of the antimicrobial peptide Bac7 by deep mutational scanning” (BMC Biology, 2022)

tested on: Escherichia coli TOP10; assay: shrunken log2 fold change of peptide-encoding DNA abundance (4.5 h post-induction vs induction); higher = less antimicrobial activity (less host growth inhibition); details: time post-induction: 4.5 h; library: site-saturation at positions 5, 18, 19, 20
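Also: peptides expressed intracellularly from a pBAD plasmid library in pooled LB shake-flask culture, induced with 0.3% L-arabinose, DNA abundance read by NGS, three biological replicates, DESeq2 with apeglm shrinkage.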

Row | Sequence | shrunken log2 fold change
1 | RRIRPRPPRLPRPRPRPHISPRP | -0.422
2 | RRIRPRPPRLPRPRPRPHLKPRP | -0.000265
3 | RRIRPRPPRLPRPRPRPHLSPRP | -0.142
4 | RRIRPRPPRLPRPRPRPHMAPRP | -0.276
5 | RRIRPRPPRLPRPRPRPHPGPRP | 2.42
6 | RRIRPRPPRLPRPRPRPHQHPRP | 2.05
7 | RRIRPRPPRLPRPRPRPHQIPRP | 1.04
8 | RRIRPRPPRLPRPRPRPHRTPRP | -0.0599
9 | RRIRPRPPRLPRPRPRPHSHPRP | 0.00335
10 | RRIRPRPPRLPRPRPRPHSSPRP | -0.171
11 | RRIRPRPPRLPRPRPRPHTKPRP | 0.00533
12 | RRIRPRPPRLPRPRPRPHTQPRP | 0.0349
13 | RRIRPRPPRLPRPRPRPHVWPRP | 0.51
14 | RRIRPRPPRLPRPRPRPHWVPRP | -0.137
15 | RRIRPRPPRLPRPRPRPICQPRP | -0.0543
16 | RRIRPRPPRLPRPRPRPIDIPRP | -0.252
17 | RRIRPRPPRLPRPRPRPIFDPRP | -0.137
18 | RRIRPRPPRLPRPRPRPIFGPRP | 0.0562
19 | RRIRPRPPRLPRPRPRPIFIPRP | -0.389
20 | RRIRPRPPRLPRPRPRPIFMPRP | -0.0036
21 | RRIRPRPPRLPRPRPRPIFVPRP | -0.197
22 | RRIRPRPPRLPRPRPRPIGCPRP | -0.0888

Row | Sequence | shrunken log2 fold change
23 | RRIRPRPPRLPRPRPRPIHKPRP | -0.561
24 | RRIRPRPPRLPRPRPRPIKDPRP | -0.763
25 | RRIRPRPPRLPRPRPRPIKMPRP | 0.0328
26 | RRIRPRPPRLPRPRPRPILDPRP | -0.0669
27 | RRIRPRPPRLPRPRPRPILQPRP | -0.224
28 | RRIRPRPPRLPRPRPRPINQPRP | -0.24
29 | RRIRPRPPRLPRPRPRPIQGPRP | -0.128
30 | RRIRPRPPRLPRPRPRPIQKPRP | 0.115
31 | RRIRPRPPRLPRPRPRPIQMPRP | -0.166
32 | RRIRPRPPRLPRPRPRPISKPRP | -0.306
33 | RRIRPRPPRLPRPRPRPITFPRP | -0.112
34 | RRIRPRPPRLPRPRPRPITLPRP | 0.0118
35 | RRIRPRPPRLPRPRPRPIWNPRP | -0.282
36 | RRIRPRPPRLPRPRPRPIYPPRP | -0.269
37 | RRIRPRPPRLPRPRPRPKAEPRP | 0.279
38 | RRIRPRPPRLPRPRPRPKAYPRP | -0.029
39 | RRIRPRPPRLPRPRPRPKCWPRP | 0.765
40 | RRIRPRPPRLPRPRPRPKEDPRP | 0.176
41 | RRIRPRPPRLPRPRPRPKEKPRP | 0.264
42 | RRIRPRPPRLPRPRPRPKEWPRP | -0.00152
43 | RRIRPRPPRLPRPRPRPKFAPRP | 0.409
44 | RRIRPRPPRLPRPRPRPKFNPRP | -0.404

Row | Sequence | shrunken log2 fold change
45 | RRIRPRPPRLPRPRPRPKFPPRP | 0.119
46 | RRIRPRPPRLPRPRPRPKFQPRP | 0.103
47 | RRIRPRPPRLPRPRPRPKGEPRP | 0.125
48 | RRIRPRPPRLPRPRPRPKGKPRP | -0.135
49 | RRIRPRPPRLPRPRPRPKIRPRP | -0.137
50 | RRIRPRPPRLPRPRPRPKITPRP | -0.105
51 | RRIRPRPPRLPRPRPRPKKFPRP | 0.0281
52 | RRIRPRPPRLPRPRPRPKLHPRP | -0.00244
53 | RRIRPRPPRLPRPRPRPKMCPRP | 0.0196
54 | RRIRPRPPRLPRPRPRPKMPPRP | -0.0926
55 | RRIRPRPPRLPRPRPRPKPMPRP | 0.218
56 | RRIRPRPPRLPRPRPRPKPWPRP | 0.227
57 | RRIRPRPPRLPRPRPRPKQSPRP | 0.142
58 | RRIRPRPPRLPRPRPRPKSCPRP | 0.0347
59 | RRIRPRPPRLPRPRPRPKSIPRP | -0.352
60 | RRIRPRPPRLPRPRPRPKTFPRP | -0.322
61 | RRIRPRPPRLPRPRPRPKVKPRP | -0.236
62 | RRIRPRPPRLPRPRPRPKVTPRP | 0.0845
63 | RRIRPRPPRLPRPRPRPLAVPRP | 0.161
64 | RRIRPRPPRLPRPRPRPLCCPRP | -0.105
65 | RRIRPRPPRLPRPRPRPLDKPRP | -0.0324
66 | RRIRPRPPRLPRPRPRPLEMPRP | 0.0597

Row | Sequence | shrunken log2 fold change
67 | RRIRPRPPRLPRPRPRPLFKPRP | -0.348
68 | RRIRPRPPRLPRPRPRPLHVPRP | -0.163
69 | RRIRPRPPRLPRPRPRPLHYPRP | -0.11
70 | RRIRPRPPRLPRPRPRPLICPRP | -0.164
71 | RRIRPRPPRLPRPRPRPLIHPRP | -0.472
72 | RRIRPRPPRLPRPRPRPLILPRP | -0.559
73 | RRIRPRPPRLPRPRPRPLKAPRP | -0.0747
74 | RRIRPRPPRLPRPRPRPLKHPRP | -0.221
75 | RRIRPRPPRLPRPRPRPLKSPRP | -0.157
76 | RRIRPRPPRLPRPRPRPLLHPRP | 0.0277
77 | RRIRPRPPRLPRPRPRPLNCPRP | -0.227
78 | RRIRPRPPRLPRPRPRPLNKPRP | -0.55
79 | RRIRPRPPRLPRPRPRPLPAPRP | 0.864
80 | RRIRPRPPRLPRPRPRPLPDPRP | 0.179
81 | RRIRPRPPRLPRPRPRPLPFPRP | -0.75
82 | RRIRPRPPRLPRPRPRPLREPRP | 0.783
83 | RRIRPRPPRLPRPRPRPLSWPRP | 0.238
84 | RRIRPRPPRLPRPRPRPLSYPRP | 0.0626
85 | RRIRPRPPRLPRPRPRPLTQPRP | 0.0664
86 | RRIRPRPPRLPRPRPRPLTTPRP | 0.135
87 | RRIRPRPPRLPRPRPRPLVAPRP | 0.101
88 | RRIRPRPPRLPRPRPRPLVRPRP | 0.138

Row | Sequence | shrunken log2 fold change
89 | RRIRPRPPRLPRPRPRPLWAPRP | 0.343
90 | RRIRPRPPRLPRPRPRPLWDPRP | 0.00439
91 | RRIRPRPPRLPRPRPRPLWPPRP | 0.325
92 | RRIRPRPPRLPRPRPRPLYCPRP | -0.548
93 | RRIRPRPPRLPRPRPRPMAKPRP | 0.646
94 | RRIRPRPPRLPRPRPRPMCCPRP | -0.0731
95 | RRIRPRPPRLPRPRPRPMCLPRP | -0.0489
96 | RRIRPRPPRLPRPRPRPMHPPRP | 0.324
97 | RRIRPRPPRLPRPRPRPMHVPRP | 0.038
98 | RRIRPRPPRLPRPRPRPMIWPRP | -0.136
99 | RRIRPRPPRLPRPRPRPMKTPRP | -0.0446
100 | RRIRPRPPRLPRPRPRPMLCPRP | 0.122
101 | RRIRPRPPRLPRPRPRPMLNPRP | -0.164
102 | RRIRPRPPRLPRPRPRPMLVPRP | 0.0962
103 | RRIRPRPPRLPRPRPRPMMRPRP | 0.224
104 | RRIRPRPPRLPRPRPRPMMVPRP | -0.0739
105 | RRIRPRPPRLPRPRPRPMNLPRP | 0.00249
106 | RRIRPRPPRLPRPRPRPMPMPRP | -0.301
107 | RRIRPRPPRLPRPRPRPMQWPRP | 0.169
108 | RRIRPRPPRLPRPRPRPMQYPRP | -0.0088
109 | RRIRPRPPRLPRPRPRPMSFPRP | -0.0289
